Measurements taken from a protein production outcome set (Wang et al. 2014).

Assay: label from the status in PepcDB records

| Sequence | protein production |
| --- | --- |
| MSLTEEFVNKEDALKNYNAKEFRTPDGYTSDMILTTVKELNGKPTLHILLIKRSLTNAEGKPNMEGGKWAVPGGFVDENESAEQAAERELEEETSLTDIPLIPFGVFDKPGRDPRGWIISRAFYAIVPPEALEKRAAGDDAAEIGLFPMTEALELPLAFDHLDMLKKAFSAITEEFLLTEGHHHHHH | not failed |
| MSLQTCVLHRLSLPLKFPMRTAHGHIREKQAILVQLVDADGIEGWSECVALAEPTYTEECTDTAWVMLVHHLVPRFARWLRAASQDQDVDPRTVCEALRDVRGNRMSVAAIEMAVWDWYAARTGQPLVGLLGGGRDRVEVSATLGMSESLDVLIQSVDAAVEQGFRRVKLKIAPGRDRAAIKAVRLRYPDLAIAADANGSYRPEDAPVLRQLDAYDLQFIEQPLPEDDWFDLAKLQASLRTPVCLDESVRSVRELKLTARLGAARVLNVKPGRLGGFGATLRALDVAGEAGMAAWVGGMYETGVGRVHGLIAAALPLMRYATDLGPSDRYFEQDVLKEPIAFVEPGVIQVPQCAGVADWVDRDAVRRFSTATWSVDLRTLEGHHHHHH | not failed |
| SSGGKSAQGPEEGGVCITEALITKRNLTFPEDGELSEKMFHTLDELQTVRLDREGITTIRNLEGLQNLHSLYLQGNKIQQIENLACIPSLRFLSLAGNQIRQVENLLDLPCLQFLDLSENLIETLKLDEFPQSLLILNLSGNSCTNQDGYRELVTEALPLLLDLDGQPVVERWISDEEDEASSDEEFPELSGPFCSERGFLKELEQELSRHREHRQQTALTEHLLRMEMQPTLTDLPLLPGVPMAGDSSPSATPAQGEETVPEAVSSPQASSPTKKPCSLIPRGHQSSFWGRKGARAATAPKASVAEAPSTTKTTAKRSKK | not failed |
| MANLWIHALTVFMGFFAIMNPIANVPIFLSLTEGDDKKTTAMVASRALLLAFLIVTIFSVAGKLIFDLFGITLPAFQITGGLLVFLIGFHMLQGDQSSVQHPSETGKKKSPEAALSVTVSPLAMPILAGPGTIATAMNFSTGENFMEMAVTIVVFGVLCLITYVLFVSGEKFVTYIGASALGVITRMMGLILAVIGAQMVIAGIHGAFGLGAG | failed |
| EADYKQATALELATLVREKKVTSEELVKIALAITKRENPTLNAVITLREEAALTEAKALQDTGQPFLGVPLLLKGLGQSLKGESNTNGFGFLQDQVAGGTSTFVKALQNAGFIIIGQTNYPELGWKNISDSKLYGVSVNPWNPNHYSGGSSGGAGASVAAAFVPIASGSDAGGSIRIPASWTGTVGLKPSRGVIIGNSNSAKGQTVHFGLSRTVADTNALFETLLTKKDLPAGHLSQAQPIAYTTESPAGTPISAEAKEAVAEAVAFLKDQGYTLVEVKHPVDGERLMKNYYTVAAGSAGIADFMARQKLKRPLERNDVELLTWALFQTGKNITSEETTAAWTDIALQAQAMDEFYQQYPILLTPTTAATAPSIDNPLLKPEHAAQMEKIDQLSPAEQKQLIYDQWLTAFTYTPFTQQANLFGHPALSVPTYVSKEGLPLGIQFNSALNEDRTLLQLGALFENNHK | failed |
| MIPLVSIIVPMYNVEPFIEECIDSLLRQTLSDIEIILVNDGTPDRSGEIAEDYAKRDARIRVIHQANGGLSSARNTGIKAARGTYIGFVDGDDYVSSAMFQRLTEEAEQNQLDIVGCGFYKQSSDRRTYVPPQLEANRVLTKPEMTEQLKHAHETRFIWYVWRYLYRRELFERANLLFDEDIRFAEDSPFNLSAFREAERVKMLDEGLYIYRENPNSLTEIPYKPAMDEHLQKQYQAKIAFYNHYGLAGACKEDLNVYICRHQLPMLLANACASPNSPKDIKKKIRQILSYDMVRQAVRHTPFQHEKLLRGERLVLALCKWRLTFLIKLFFEQRGTMKGSAKQALEHHHHHH | failed |
| MPCDFPGCGRIFSNRQYLNHHKKYQHIHQKSFSCPEPACGKSFNFKKHLKEHMKLHSDTRDYICEF | not failed |
| MIRVMATGVFDILHLGHIHYLKESKKLGDELVVVVARDSTARNNGKIPIFDENSRLALISELKVVDRAILGHEGDMMKTVIEVKPDIITLGYDQKFDEAELQSKINKLGITVKIVRISKYDGQLNSSSSVRKKIMELIGERY | not failed |
| MAAASPLRDCQAWKDARLPLSTTSNEACKLFDATLTQYVKWTNDKSLGGIEGCLSKLKAADPTFVMGHAMATGLVLIGTGSSVKLDKELDLAVKTMVEISRTQPLTRREQLHVSAVETFANGNFPKACELWEQILQDHPTDMLALKFSHDAYFYLGYQEQMRDSVARIYPFWTPDIPLSSYVKGIYSFGLMETNFYDQAEKLAKEALSINPTDAWSVHTVAHIHEMKAEIKDGLEFMQHSETFWKDSDMLACHNYWHWALYLIEKGEYEAALTIYDTHILPSLQANDAMLDVVDSCSMLYRLQMEGVSVGQRWQDVLPVARKHSRDHILLFNDAHFLMASLGAHDPQTTQELLTTLRDASESPGENCQHLLARDVGLPLCQALVEAEDGNPDRVLELLLPIRYRIVQLGGSNAQRDVFNQLLIHAALNCTSSVHKNVARSLLMERDALKPNSPLTERLIRKAATVHLMQ | failed |
| MSDPAEVPTASPLLETVGLACERDWRMLFERLDLRLAAGEMLQVVGPNGSGKTSLLRLLSGLMQPTAGEVRLNGRPLAEQRGELARSLLWIGHAAGIKGLLSAEENLTWLCALHQPASREAIWQALADVGLRGFEDVPCHTLSAGQQRRVALARLYLDAPPLWILDEPFTALDKQGVAQLETHLAGHCQRGGMVVLTTHHSLQQVPAGYRELDLGALKAASGATVEPALGDPA | failed |
| MGVRLVLRLVPRLVTRFTPLGLGMVALGCALVASFYSPPSFASIWDLLTNKRGVSQASVSKDSPRIELVGTLPADTELELIGFYYSSICTEKEMYFPSGDIANPQWRTKGTTSQLRQVVTSLHNASHFTQSVALQGGGACEWQLTNIQLNMSLLPSHRLWQEAQSLKKQYLAELPVAKVKDEALEKDAFKQSFDLIPTAKEADAASADSNDATITFSPIYYPIYSYAPEDKQPFDVGLKSSLQREVSDRWSLQHSRRIRLADERVTRVNFTPQIAEDYAVNIHILDRKSKVSYPDGTEFTYIKAGLRLYPYGSAESRFNSLQRSARLEDKRQLAKIYDSGIEHVFEGDKAKAEVLYRELGEAGDMESINWLRERARWGYIKDGQYWLARAAKLGDIQAQLELINQPLSVIPQGKVNTGQAKIREQQAWQTLTELTKQGIPQAVSTMAYYQVFSCSPYFNTTAALDNYRKSVKAQPDLARDAAETYYYFKEDLAQAREFFEIAAEREIDVAAEYAGILLAAEQRDPKRARYWLEKVVTAGDKQYIQQDVLGYAYFRLASLLDAGEGGDADPKRAITLYQQSIELGEGFSNDYQAKAKERLQSLQERHL | failed |
| LGTVIQENSRSGGEQSANFFVNGPLAENLLLQVYGQYTAREEDDIDYGYEDKDMQSISSKLIYQINDRHSVQLEGGTSAQSRRGNVGLSVPTTGCRRGCEDSLNEYRRNYVTLSHTGEWELLGNSDTYLQREESENKSREMTIVNTTFKSSLVKGLGAHTLTTGVDATHAELEDFTSNKASSKTKASNTQWAVFIEDEWKIAEPFSLTLGGRLDHDENYGAHFSPRVYGVWRVAPAWTVKGGVATGFRSPQLREITPGWAQVSGGGNIYGNPDLDPETSLNKEISVLYQGDSGLDVTLTAFHNEFKDKITRVVCPDTICTDGPNQWGADPTYRINVDEAVTQGVEATLAKPLTETIYLSSSYTFTDSEQKTGEYKGMPLQQLPKHLFNVDVTWQTTDNLESWTKVTYRGKEMDPVTGPSRNSIVEPAYTFVDAGVTYQLTDNTKIKGAIYNLFDEDINYKEYGYVEDGRRYWLGLDVAF | failed |
| LQSKLSLPKIPNVIECFDISHLSGTATVGSMVQFRGGRPDKHNYRRFKIESVEGIDDFASIAEVVRRRYSRLLEDKHEMPDLIIIDGGKGQLSSAFQELRKLRVKVPIISIAKREEEIYVPGLKSPLPIKKDEKASLFVQEIRDEAHRFAINYNRLLRQKALIQK | failed |
| MDKLEAMQVYVCVVDTHSFIRAAEVLGVPRSTVSRVVKELESWLKIQLLQRTTRKLSVTAEGRRYYEECKRVLADIAAMESSFPGRAAQPKGRFKVGMPQSLARHCIIPTLPAFLRQYPELELILCSSDSVEDIILQGYDCVIRAGRIDDSTTLVARPLASFNWVIAASPTYIERYGSPENLDDLQKHYAVGYLNHRTGRTTDWFFTREGEDYAMRVQETLVVDDTDAYIQAGIQGLGLIRVASYLVAPYLHSGALVTCMDNHSYDLPLALVYPQNRFLPPAVRAFYHWCKTALSQPEPFC | failed |
| MEKKKVTIPQVCHGHSRPVVDLFYSPITPDGFFLISASKDSHPMLRNGETGDWIGTFEGHKGAVWSSCLDNNALRAASASADFSAKLWDALTGDVLHSFEHKHIVRACAFSEDTKSLLTGGFEKILRVFDMNRLDAPPTEVDKSPGSIRTLTWLHSDQTILSSCTDIGGVRLWDVRSGKIVQTLETKSPVTSAEVSQDGRYITTADGSTVKFWDANHFGLVKSYDMPCNIESASLEPKSGEKFVAGGEDMWVRVFDFYTGEEIGCNKGHHGPVHCVRFTPTGLSYASGSEDGTIRIWQTTPANPEENETSSRRVKHSVDEVSKKIEGFHINKEGKTAEKPSDT | failed |
| FKVRVGEPGQAGNPALVSAYGTGLEGGTTGIQSEFFINTTRAGPGTLSVTIEGPSKVKMDCQETPEGYKVMYTPMAPGNYLISVKYGGPNHIVGSPFKAKVTGQRLVSPGSANETSSI | not failed |
| MSGNSDEATAPGADWDALAASFDDEPDHGLRDAEVRRAWAARLASWLPAPPGDVLDLGCGTGSLSLLAAEQGHRVTGVDLSPAMVELARTKLAGRDAVFLTGDAAAPPVGEQRFDAVLVRHVLWTLPDPGRALRHWRQLLRPGGRLVLVEGVWGSVSPVGIPADRVTALLGPLTGQARVERLSDDPSLWGREVADERYAVVATYG | failed |
| MPQFFKRTSKIQAIIALRSIAIAIQLLLILFVNLGLAYELPWTPLVSVISLEVLFTFGSYLYYSRNHLSEKKASQKAILVQICADIIFLSLLLFFSGGATNAFVSLLLIPIAIAAVTLTPLLLTVVAFLAIASYSILLWSLPMSVMHGNMQGHFIGMGINFLFSALVVAIVVGKMARSINQQELAIAAYRENLLKQEQVTSLGVASAQVTHQLATPIATVQLLADELSEDFPDNEIVLDMQSQLTRCRDSLSEFRAMVFDIKEQVIKAINCQDLFDEITDNVRVNNPEVSLQLQKNSDEHAKDVTIDADAALLPAILNLINNAIRASKANNSNALSLTCQTIENNWQFTIRDYGKGFTLKKLNELGVKPVNSDQGFGMAVFLSHASLERLGGKLALTNHQEGGALVTLSLPISSLTSGNDYA | failed |
| SKGRPQIDSSKATDKINPMDFTFVEINEAVKLVEMGVATPQDIDTAIKLGLNRPFGPFELAKQFGAEQIAKRLEELAKQFGKKIFEPAKTLKEGKLEELLKAGKAE | not failed |
| MADTITVSIVLAYFVVTLALGFFAARKIKTAEHYYGARKLFGMFVTAVAVFSGIASAFTFIGGPGLVYPMGGTVNWVIWTPVISMPLIWYLLGKRIKLITEARPVATLPDLTAARFKSDAVRFLTAVALIFGIITYLAGNVMGAGLVLTDMLGTPLELSIAIVFGIIMLYTAFGGMVASILTDFFQGLVMMVAAIIFVVFILIMTGGVENLFATIAESNPRHIDPIGVGPIWLGIMGWWWALNIGSSVQPHAVTKFFALKDYRDLKWGALVTTIAWTLACLMWFFGGYASVWVVIKGLAEAPARSDQAIFGVIAQMPVVLKAVIYAGVLAAIMSTVSGFISMGTAAVVRDIPTAIGKSLSQRGQILWGRVVTVILTVVAALFGYYGGYVVGILVTLGLGYFASMLFPLLVIGLNWKRATKEAAIITTALTVAMNLGFLVYEKVLSMSLPYGLPGYGVTFAVGIITMVLVSLITKGAALDDMDEDIRAAMSL | failed |
